# Source: publication PMC2665239 (Nucleic Acids Research, 2009)
# Where two headings read alike, the source gives them in different places.
# T1: His-tagged ttPOLXc domain (N-terminal domain of ttPolX, residues 1-379) (Thermus thermophilus HB8, UniProt Q5SJ64 1-379)
# T1 sequence (looked up): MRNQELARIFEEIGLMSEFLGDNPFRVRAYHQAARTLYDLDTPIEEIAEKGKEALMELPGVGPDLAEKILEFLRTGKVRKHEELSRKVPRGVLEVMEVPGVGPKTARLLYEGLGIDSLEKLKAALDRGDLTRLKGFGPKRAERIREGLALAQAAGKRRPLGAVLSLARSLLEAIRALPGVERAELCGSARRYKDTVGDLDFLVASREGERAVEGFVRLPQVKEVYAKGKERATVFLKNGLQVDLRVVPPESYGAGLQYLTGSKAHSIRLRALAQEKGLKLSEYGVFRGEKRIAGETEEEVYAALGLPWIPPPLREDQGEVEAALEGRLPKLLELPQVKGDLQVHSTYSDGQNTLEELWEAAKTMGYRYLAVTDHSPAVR
# T2: ttPOLXc domain (Thermus thermophilus HB8, UniProt Q5SJ64 1-379)
# T2 sequence: T1 sequence (looked up)
# T3: ttPHP domain (Thermus thermophilus HB8, UniProt Q5SJ64 339-575)
# T3 sequence: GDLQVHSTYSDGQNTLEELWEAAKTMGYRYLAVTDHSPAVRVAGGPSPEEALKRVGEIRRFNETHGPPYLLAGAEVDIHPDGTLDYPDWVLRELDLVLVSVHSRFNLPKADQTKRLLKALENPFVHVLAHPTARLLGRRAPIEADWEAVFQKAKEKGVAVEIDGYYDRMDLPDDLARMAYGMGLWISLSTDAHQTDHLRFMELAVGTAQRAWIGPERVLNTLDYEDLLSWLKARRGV
# T4: ttPolX (Thermus thermophilus HB8, UniProt Q5SJ64 1-575)
# T4 sequence: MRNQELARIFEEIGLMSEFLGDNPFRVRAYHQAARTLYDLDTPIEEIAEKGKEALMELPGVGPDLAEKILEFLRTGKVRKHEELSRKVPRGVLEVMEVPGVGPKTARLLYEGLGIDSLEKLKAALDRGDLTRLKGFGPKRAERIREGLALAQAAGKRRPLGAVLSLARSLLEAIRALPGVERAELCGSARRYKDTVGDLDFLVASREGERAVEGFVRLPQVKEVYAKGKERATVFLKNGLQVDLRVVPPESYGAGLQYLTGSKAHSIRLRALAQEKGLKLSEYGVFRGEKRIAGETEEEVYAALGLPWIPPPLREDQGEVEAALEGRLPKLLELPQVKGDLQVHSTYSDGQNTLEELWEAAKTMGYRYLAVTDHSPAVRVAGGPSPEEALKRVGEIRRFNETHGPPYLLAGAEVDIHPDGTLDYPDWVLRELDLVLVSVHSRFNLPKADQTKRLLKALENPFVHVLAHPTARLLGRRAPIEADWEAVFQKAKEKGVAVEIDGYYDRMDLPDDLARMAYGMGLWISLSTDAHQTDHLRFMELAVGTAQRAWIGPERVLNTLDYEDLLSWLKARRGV
# B1: His-tagged ttPHP domain (C-terminal domain of ttPolX, residues 339-575) (domain or fragment, Thermus thermophilus HB8, UniProt Q5SJ64 339-575, looked up)
# chain: T3 sequence
# B2: 21F/40T/18G 1-nt gapped DNA (dsDNA)
# DNA 1: CACTGGCGGTCGTTCTATCGGGTGTTGCTTTAGTTGTCAT
# DNA 2: ATGACAACTAAAGCAACACCC
# DNA 3: ATAGAACGACCGCCAGTG
# B3: 21F/40T/P18G 5'-phosphorylated 1-nt gapped DNA (dsDNA)
# DNA 1: B2 DNA 1
# DNA 2: ATGACAACTAAAGCAACACCC
# DNA 3: ATAGAACGACCGCCAGTG
# modifications: 5'-phosphate on 18G (P18G)
# B4: 40T/40C dsDNA (dsDNA)
# DNA 1: B2 DNA 1
# DNA 2: ATGACAACTAAAGCAACACCCGATAGAACGACCGCCAGTG
# Tests used:
# [1] = molecular target: T1, His-tagged ttPOLXc domain (N-terminal …); experiment: SEC
# ttPOLXc domain [2] = molecular target: T2, ttPOLXc domain; experiment: EMSA
# ttPHP domain = molecular target: T3, ttPHP domain; experiment: EMSA
# ttPolX [3] = molecular target: T4, ttPolX; experiment: EMSA
# ttPolX [4] = molecular target: T4, ttPolX; experiment: EMSA; remark: listed apart in the source
# ttPOLXc domain [5] = molecular target: T2, ttPOLXc domain; experiment: EMSA; remark: listed apart in the source
# ttPOLXc domain [6] = molecular target: T2, ttPOLXc domain; experiment: EMSA; remark: listed apart in the source
# ttPolX [7] = molecular target: T4, ttPolX; experiment: EMSA; remark: listed apart in the source
# ttPolX [8] = molecular target: T4, ttPolX; experiment: EMSA; remark: listed apart in the source
# ttPOLXc domain [9] = molecular target: T2, ttPOLXc domain; experiment: EMSA; remark: listed apart in the source
binder,measurement,setting,value
B1,stoichiometry N,[1],1 ttPOLXc:ttPHP molar ratio
CACTGGCGGTCGTTCTATCGGGTGTTGCTTTAGTTGTCAT (ssDNA) [40T ssDNA],Kd,ttPOLXc domain [2],5.5 ± 1.7 µM
same,binding result,ttPHP domain,no binding
same,Kd,ttPolX [3],1.2 ± 0.7 µM
B2,binding result,ttPHP domain,no binding
same,Kd,ttPolX [4],0.39 ± 0.15 µM
same,Kd,ttPOLXc domain [5],6.5 ± 2.5 µM
B3,binding result,ttPHP domain,no binding
same,Kd,ttPOLXc domain [6],4.8 ± 2.5 µM
same,Kd,ttPolX [7],0.3 ± 0.18 µM
B4,Kd,ttPolX [8],1.2 ± 0.7 µM
same,Kd,ttPOLXc domain [9],9.3 ± 3.8 µM
same,binding result,ttPHP domain,no binding
